As usually defined, the Ki is the equilibrium dissociation constant of an inhibitor or competing ligand from its target. Low values mean tighter binding, high ones weaker binding.

Where only a bound is given, the exact number is not on record here.

Two substances from publication PMC11905679 can be followed below.

Assay [1] deals with α-chymotrypsin (bovine).
The target of assay [2] is α-chymotrypsin (bovine). This is another data set of the same source.
Assay [3] has as its target α-chymotrypsin (bovine). Put plainly: enzyme inhibition kinetics.
Assay [4] has as its target α-chymotrypsin (bovine). This is another data set of the same source.

Substance “Trichinella pseudospiralis serine protease inhibitor (Tp-serpin) (natural protein)” came in with a k3, rate constant of the irreversible inhibition of α-chymotrypsin (BTEE hydrolysis, 256 nm) in assay [1] of 0.00235 s⁻¹. The stoichiometry of inhibition (SI), residual chymotrypsin activity against the molar ratio [I]/[E] in assay [2] was determined as 1.19. In addition, the Ki in assay [3] worked out at 47.9 nM. For the same substance, the inhibition rate of α-chymotrypsin enzyme activity at 200 nM serpin in assay [4] is above 80%.

On to “Trichinella spiralis serine protease inhibitor (Ts-serpin) (natural protein)”, for which, in assay [1], the k3, rate constant of the irreversible inhibition of α-chymotrypsin (BTEE hydrolysis, 256 nm) was found to be 0.00247 s⁻¹. In addition, the stoichiometry of inhibition (SI), residual chymotrypsin activity against the molar ratio [I]/[E] in assay [2] was determined as 1.21. This substance had a Ki in assay [3] of 49.2 nM. Moreover, in assay [4], the inhibition rate of α-chymotrypsin enzyme activity at 200 nM serpin was above 80%.
